Experimental data from the nanobody polyreactivity screen of Harvey et al. (2022).

Experiment: yeast display, Sf9 membrane polyspecificity reagent, FACS + sequencing; frameworks hold sequencing errors
Outline: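 Sorting gates, low and high (top ~1%), were placed on anti-HA fluorescence to track expression and on streptavidin fluorescence to track reagent binding. A clone's polyreactivity label is taken from the gate it came out of. The reagent was 10% biotinylated, detergent-solubilized Sf9 membrane, applied for 1 hour at 4 °C to galactose-induced yeast display cells.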

Sequence | polyreactivity (PSR sort gate)
QDQLVESGGGLVQAGGSLRLSCAASRRTFSNYAMGWYRPAPGKERELVAAISGTGDNTYYADSVKVRFTISRDNANYTVYLQMNSLKPEDTAVYYCNTVYYGWPRCYGYWGQGTQVTVSS | high polyreactivity
QVQLVESGGGLVQAGGSLRLSCAASGSTFYVNAMGWYRQAPGKERELVAAINSGGRTYYADSVKGRFTISRDNAKNTVYLQMNSLKPEDTAVYYCAAEVSYYLNEFDYWGQGTQVTVSS | low polyreactivity
QVQLVESGGGLVQAGGSLRLSCAASGLILVPNTMGWYRQAPGKARELVAAISYSGGGTYYADSVKGRFTISRDNAKNTVYLQMNSLKPEDTAVYYCAAYDKRESAPYGYWGQGTQVTVSS | low polyreactivity
QVQLVESGGGLVQAGGSLRLSCAASGSTSDINAMGWYRQAPGKERELVAVITDSSNTDYADSVKGRFTISRDNAKNTVYLQMNSLKPEDTAVYYCAADRDEPDPYDYWGQGTQVTVSS | low polyreactivity
QVQLVESGGGLVQAGGSLRLSCAASGRIFLYYAMGWYRQAPGKERELVAAITSSGGDTYYADSVKGRFTISRDNAKNTVYLQMNSLKPEDTAVYYCAALGGRYRASTYGYWGQGTQVTVSS | high polyreactivity
QVQLVESGGGLVQAGGSLRLSCAASGRIFSKYAMGLYRQAPEKERELVAAISGTGGSTYYADSVKGRFTISRDNSKNTVYLHMNSLKTEDTAVYYCAAEWYGRMYYWGQGTQVTVSS | high polyreactivity
QVQLVESGGGLVQAGGSLRLSCAASGINFIVNPMGWYRQAPGKEREFVATISANSDGTYYADSVKGRFTISRDNAKNTVYLQMNSLKPEDTAVYYWGQGTQVTVSS | low polyreactivity
QVQLVESGGGLVQAGGSLRLSCAASGITFYGNAMGWYRQAPGKERELVAGISSGGSTSYADSVKGRFTISRDNAKNTVYLQMNSLKPEDTAVYYCAKRWYYGTRYGTSYIRDYWGQGTQVTVSS | high polyreactivity
QVQLVESWGGLVQAGGSLRISCAASGNIFRYAMGWYRQAPGKERELVAAITYRGSTTYYADSVKGRFTISCDNAKNTVYLQMISLKPEDTAVYYCAARASYTRRHVGRPYDYWGQGTQVSVSS | high polyreactivity
QVQLVESGGGLVQAGGSLRLSCAASGSTFPYVMGWSRQAPGKERELVAAISQRTGSTYYADSVKGRFTSSRDNAKNTVYLQMNSLKPEDTAVYYCAKPGYLRPSRYDYWGQGTQVTVSS | high polyreactivity
QVQLVESGGGLVQAGGSLRLSCAASGSTFTTNAMGLYRQEPGKERELVAAITSTGSTYADSVKGRFTISRDNAMNTVYLQMNSLKPEDTAVYYCAADTQWTTPYDYWGQGTQVTVSS | low polyreactivity
QVQLVESGGGLVQAGGSLRLSCAASGLTLGDNPMGWYRQAPGKERELVAAITSGGVNTYYADSVKGRFTISRDNAKNTVYLQMNSLKPEDTAVYYCAVPNRVYSQQYKFSVRYYYWGQGTQVTVSS | low polyreactivity
QVQLVESGGGLDQAGGSLRLSCAASGLIFRRYAMGWYRQAPGKERELVAAISRSGGSTYYADSVKGRFTISRDNAKNTVYLQMNSLKPEDTAVYYCAARTRSDNSYHGGEYWGQGTQVTVSS | high polyreactivity
QEQLQESGGGLVHAGGSLRLSCAASGSISQAWYMGWYRQAPGKERELVAAINGGAITYYADSVKGRFSISRDNAKNTVYLPMNSLTPEDTAVYYCAVDQYSEAYYDYWGQGTQATVSS | high polyreactivity
QDQLVESGGGLVQAGGSLRLSCAASGRTFGYYVMGWYRQAPGKERELVAAISRSGGTTYYADSVKGRFTISRDNAKNTVYLQMNSLKPEDTAVYYCATDSRTGYDYWGQGTQVTVSS | high polyreactivity
QDQLVDSGGGLLQAGGSLRLSCAASGSMLSTYAMGWYRQATGKERELVASISSIAGSTYYADSVKGRFTISRDNAMNTVYLQLNILKPEDNAVYYCNKVYGGGSYDYWGQGTQVTVSS | low polyreactivity
QVQLVESGGGLVQAGGSLRLSCAASGYTFVLNAMGWYRQAPGKEREFVAAITWSGGSTYYADSVKGRFTISRDNAKNTVYLQMNSLNPEDTAVYYCAATAHYFGEYDYWGQGTQVTVSS | low polyreactivity
QVQLVESGGGLVQAGGSLRLSCAASGSTFIGNAMGWYRQAPGKERELVAAITRSGGSTFYADSVKGRFTISRDNAKNTVYLQMNSLKPEDTAVYYCAARNGAYPALTAGDYWGQGTQVTVSS | high polyreactivity
QVQLVESGGGLVQAGGSLRLSCAASGSIFPFYAMGWSRQAPGKERELVAAITWISGRTYYADSVKGRFTISRDNAKTTVYLQRNRLKPEDTAVYYCAVDYYSWLRRDDYWGQGTQVTVSS | low polyreactivity
QVQLVESGGGLVQAGGSLRLSCAASGLTFKVYDMGWYRKAPGKERELVAAIWSDGDTYYADSVKGRFTISRDNAKNTVYLQMNSLKPEDTGVYYCAAVPGCTVHFVYGNKYDYWGQGTQVTVSS | low polyreactivity
QVQLVESGGGLVQAGGSLRLSCPASGSIFKYYAMGWYRQAPGKDRELVAPITDRGSSTYYADSVKGRFTISRDNAKNTVYLQMNSLKPEDTAVYYCAAVYYAFYRFGYWGQGTQVTVSS | high polyreactivity
QVQLVESGGGLVQAGGSLRLSCAASGITFAYYAMGWYRQAPGKERELVAAISRSGGGTYYADSVKGRFTISRDNAKNTVYLQMNSLKPEDTAVYYCNKDYPYYNSGPWAYKFDYWGQGTQVTVSS | high polyreactivity

Sequence | polyreactivity (PSR sort gate)
QVQLVESGGGLVQAGCSLRLSCAASGRIFSFYAMGWYRQAPGKERELVITSGGDTNYADSVKGRFTISRDNAKNTVYLQLNSLKPEDTAVYYCNAEGDRSQPYNFDYWGQGTQVTVSS | low polyreactivity
QVQLVESGGGLVQAGGSLRLSCAASGITFTEYAMGWYRQAPGKERELVAAITGSGTSTYYADSVKGRFTISRDNAKNTVYLQMNSLKPEDTAVYYCAAERKNKYDYWGQGTQVTVSS | high polyreactivity
QVQLVESGGGLVQAGGILRLSCAASGNIFDRYAMGWYSQAPGKERELVAGMTWSGGSTYYADSVKWRFTISRDNAKNTVYLQMNSLKPEDTAVYYCGQANYYWGQGTQVTVSS | low polyreactivity
QVQLVESGGGLVQAGGSLRLSCAASGGTIVWNAMGWNRQAPGKEREFVAAITSSGGSTYYADSVKGRFTISRDNAKNSVYLQMNSLKPEDTAVYYCNVDTHSSYEFNSWGQGTQVTVSS | low polyreactivity
QVQLVESGGGLVQAGGSLRLSCAASGRISRSKTMGWYRQATGKERELFAVINTWIGGSTYYADSVKGRFTISRDNAKNTVYLQMNRQKPEDTAVYYCAADATLWDWWLDYDYWGQVTQVTVSS | high polyreactivity
QVQLVESGGCLVQAGGSLRLSCAASGFTFRYYAMGWYRQAPGKERELVAGITSGSRTNYADSVKGRFTISRDNAKNTVYLQMNSLKPEDSAVYYCAARIYNYQSWYDYWGQGTQVTVSS | high polyreactivity
QVQLVESGGGLVQAGGSLRLSCAASGSIFPYNAMGWYRQAPGEFVAAISYSSGSTYYADSVKGRFTISRDNAKNTVYLQMNSLKPEDTAVYYCAAGSWYPPSYVWLGRYDYWGQGTQVTVSS | low polyreactivity
QVQLVESGGGLVQAGGSLRLSCAASGNTINVNTMGWYRQAPGKERDLVAAISKRGGSTYYADSVKGRFTISRDNAKNTVYLQMNSLKPEDTAVYYCDKQVSLPRYHYGSAPYGYWGQGTQVTVSS | high polyreactivity
QVQLVESGGGLVQGGGSLRLRCAASGSILLYYTMGWYRPAPGKERELVAAISWSGVSTYYADSVKGRFTISRDNPMNTVYLQMISLKPVDNEVYYCGTRSVQGSYFAGYCYWGQGPQVTVSS | low polyreactivity
QVQLVESGGGLVQAGGSLRLSCAASGRILHANAMGWYRQAPGKERELVAAITGRGGSTYYADSVKGRFTISRDNAKITVYLQMNSLKPEDTAVYYCAARVKQAGYRMDYWVQGTQVTVSS | high polyreactivity
QVQLLESGGGLVQSGGSLRVSCAASGRNFGRYDMGWYRQAPGKERELVATISSRGGNTYYADSVKGRVTISRDNAMNTVYLQMNSLTPDDTAVYYCAAQTYKWYDWGQGTQVTVSS | high polyreactivity
QVQLVESGGGLVQAGGRLRLSSAASGFIFAYNAMGWYRQGPGKERELVASIRTRGGSTYYADSVKGRFTISRDNAKNTVYLQMNSLKPEDTSVYYCAARPFPRRYDYWGQGSQVTVSS | low polyreactivity
QVQLVESGAGLVQAGGSLRLSCAAYGLIFTYNAMGWYRQAPWKERKLVARITSGGNTNYADSVKGRFTISRDYAKNTVYLQMNSLKPEDTAVYYCATCLYWFTNRYGYWGQGTQVTVSS | low polyreactivity
QVQLVESGGGLVQARGSLRLSCAASGSTFAYNAMGWYRKAPGKERELVADITSTGTSTYADSVKGRFTISRDNAKNTVYLQMNSLKPEDTAVYYCNADYDSTYVGYDYWGQGTQVTVSS | low polyreactivity
QVQLVESGGGLVQAGGSLRLSCAASGGTFSPYAMGWYRQAPGKERELVAVIRSDVTTNYADSVKGRFTISRDNAKNTVYLQMNSLKPEDTAVYYCNVERHRVWDYQWREEDDYWGQGTQVTVSS | low polyreactivity
KVQLVESGGGLVQAGGSLRLSCAASGFTFEGYAMGWYRQAPGKEMELVAAISSNGGRTYYADSVKGRFTISRDNAKNTVYLQMNSLKPEDTAVYYCNARRAYSGPDYDYYHGRRYDYWGQGTQVTVSS | low polyreactivity
QVQLVESGGGLVQAGGSLRLSCAASGFIFSRNAMGWYRQAPGKERELVAAISLRGGSTYYADSVKGRFTISRDNAKNTVYLQMNSLKPEDTAVYYCAADSVLTPYDYWVQGTQVTVSS | low polyreactivity
QVQLVESGGGLVQAGGSLRLSCAASGSTFYWYAMGWYRPAPGKERELVAAISSGADTSYADSVKGRFTISRDNAKNTVYLQMNSLKPEDTAVYYCARRYRARGSMYYWGQGTKVTVSS | high polyreactivity
QVQLVESGGGLVQAGGSLRLSCAASGSTFDGNAMGWYRQAPGKERELVAGISYRGGSTYYADSVKGRFTISRDNAKNTVYLQMNSLKPEDTAVYYCAADDYGYWLFDYWGQGTQVTVSS | low polyreactivity
QVQLVESGGGLVQAGGSLRLSCAASGRNFDKYTMGWYRQAPGKERELVAAISKSGSGTFYADSVKGRFTISRDNAKNTVYLQMNRLKPEDTAVYYCARVYTVGTGRSWRLDYWGQGTQVTVSS | high polyreactivity
QVQLVESGGGLLQAGGSLRLSCAASGRIFGVYAMGWYRQAPGKEMELVAAISWGGGSTYYADSVKGRFTISRDNAKNTVYLQMISLKPEDTAVFDCAADPPDGFYYTWDYDYWGQGTQVTVSS | low polyreactivity
